According to publication PMC5383425, “Differential CLE peptide perception by plant receptors implicated from structural and functional analyses of TDIF-TDR interactions” (PLoS ONE, 2017):
Square brackets hold non-standard residues; d marks the D form. Ends that are not written are not given here. Hyp = O=C(O)[C@@H]1C[C@@H](O)CN1

Tests used:
Assay in all cases: ITC; 0.5–1 mM peptide titrated into 10–40 μM ecdTDR; 25°C; 10 mM sodium citrate, 100 mM NaCl, pH 5.5; fitted to one set of binding sites; MicroCal Auto-iTC200
Conditions in all cases: both partners purified
ecdTDR Q282A mutant = target: T1, ecdTDR Q282A mutant (Arabidopsis thaliana, UniProt Q9FII5 30-642, Q282A)
T1 construct: TDR/PXY of A. thaliana, extracellular domain, residues 30-642; source: High Five insect cells (baculovirus), secreted, purified as the wild type (Ni-NTA, size-exclusion chromatography)
T1 sequence (looked up): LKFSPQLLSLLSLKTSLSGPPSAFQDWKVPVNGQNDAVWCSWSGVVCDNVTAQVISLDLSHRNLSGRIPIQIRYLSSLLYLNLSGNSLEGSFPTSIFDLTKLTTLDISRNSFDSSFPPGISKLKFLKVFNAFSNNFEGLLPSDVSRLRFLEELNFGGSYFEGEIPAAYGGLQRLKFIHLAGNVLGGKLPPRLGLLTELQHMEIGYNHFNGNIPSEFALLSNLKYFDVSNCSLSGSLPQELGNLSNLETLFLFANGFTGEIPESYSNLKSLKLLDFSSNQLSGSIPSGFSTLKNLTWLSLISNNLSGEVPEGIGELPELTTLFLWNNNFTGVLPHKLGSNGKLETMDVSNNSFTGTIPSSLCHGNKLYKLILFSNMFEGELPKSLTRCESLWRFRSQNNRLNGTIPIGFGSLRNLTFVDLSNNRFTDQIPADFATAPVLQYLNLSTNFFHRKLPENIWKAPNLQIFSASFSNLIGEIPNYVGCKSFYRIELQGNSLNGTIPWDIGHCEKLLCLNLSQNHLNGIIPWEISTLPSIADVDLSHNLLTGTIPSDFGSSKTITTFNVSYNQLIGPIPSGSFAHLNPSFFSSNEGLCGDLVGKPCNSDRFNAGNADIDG

[1] = target: T2, ecdTDR F281 alanine mutant (Arabidopsis thaliana, UniProt Q9FII5 30-642, alanine substitution of F281)
T2 construct: TDR/PXY of A. thaliana, extracellular domain, residues 30-642; The text says only 'mutational analyses' of F281; source: High Five insect cells (baculovirus), secreted, purified as the wild type (Ni-NTA, size-exclusion chromatography)
T2 sequence (looked up): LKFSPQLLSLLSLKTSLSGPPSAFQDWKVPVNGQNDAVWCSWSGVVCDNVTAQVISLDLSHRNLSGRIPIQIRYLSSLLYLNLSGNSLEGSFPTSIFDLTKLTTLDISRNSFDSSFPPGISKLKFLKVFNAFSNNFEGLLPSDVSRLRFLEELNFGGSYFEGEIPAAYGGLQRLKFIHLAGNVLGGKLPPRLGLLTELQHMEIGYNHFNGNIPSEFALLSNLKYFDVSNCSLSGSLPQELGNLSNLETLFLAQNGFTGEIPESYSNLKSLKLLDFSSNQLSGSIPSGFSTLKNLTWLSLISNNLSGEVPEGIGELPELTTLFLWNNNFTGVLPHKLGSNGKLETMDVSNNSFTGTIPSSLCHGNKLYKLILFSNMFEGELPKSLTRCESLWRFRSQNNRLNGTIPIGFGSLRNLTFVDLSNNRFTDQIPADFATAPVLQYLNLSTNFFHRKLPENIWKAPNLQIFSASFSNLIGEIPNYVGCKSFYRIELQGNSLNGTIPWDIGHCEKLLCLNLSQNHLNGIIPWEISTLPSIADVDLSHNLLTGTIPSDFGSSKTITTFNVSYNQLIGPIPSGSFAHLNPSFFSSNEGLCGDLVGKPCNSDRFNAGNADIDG

ecdTDR G186A mutant = target: T3, ecdTDR G186A mutant (Arabidopsis thaliana, UniProt Q9FII5 30-642, G186A)
T3 construct: TDR/PXY of A. thaliana, extracellular domain, residues 30-642; source: High Five insect cells (baculovirus), secreted, purified as the wild type (Ni-NTA, size-exclusion chromatography)
T3 sequence (looked up): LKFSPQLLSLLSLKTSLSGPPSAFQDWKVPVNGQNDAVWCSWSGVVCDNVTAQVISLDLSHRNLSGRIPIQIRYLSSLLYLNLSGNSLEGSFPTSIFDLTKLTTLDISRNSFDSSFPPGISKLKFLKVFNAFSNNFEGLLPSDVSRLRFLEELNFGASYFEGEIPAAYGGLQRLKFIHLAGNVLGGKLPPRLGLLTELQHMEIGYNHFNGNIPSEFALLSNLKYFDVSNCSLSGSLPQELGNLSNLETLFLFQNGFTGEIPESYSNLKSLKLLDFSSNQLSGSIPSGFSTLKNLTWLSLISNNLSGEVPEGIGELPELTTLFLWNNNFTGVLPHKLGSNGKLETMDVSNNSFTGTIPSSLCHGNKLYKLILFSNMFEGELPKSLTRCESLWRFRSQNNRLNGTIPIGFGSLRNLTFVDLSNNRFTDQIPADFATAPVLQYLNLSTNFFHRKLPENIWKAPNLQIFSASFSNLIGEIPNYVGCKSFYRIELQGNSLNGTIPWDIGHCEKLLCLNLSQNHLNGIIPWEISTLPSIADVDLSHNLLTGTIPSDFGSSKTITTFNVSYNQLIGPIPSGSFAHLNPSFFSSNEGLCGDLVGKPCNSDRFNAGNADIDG

Measured: binding result

B1: Tracheary Element Differentiation Inhibitory Factor (TDIF) peptide (peptide)
peptide: HEV[Hyp]SG[Hyp]NPISN
notes: TDIF, the 12-residue CLE peptide processed from CLE41 and CLE44 of A. thaliana; printed as HEV(Hyp)SG(Hyp)NPISN; numbers count on: the 12-residue peptide; CLE44 encodes the same peptide; also called wild type TDIF; wtTDIF; source: synthetic peptide (peptide 2.0)
binds: all assays above
